This is an account of results in US20250171562A1.

B1: CIgG4F4A1(G4S)1 (Fc fusion)
chain 1: GPPCPPCPAPEFLGGPSVFLFPPKPKDTLMISRTPEVTCVVVDVSQEDPEVQFNWYVDGVEVHNAKTKPREEQFNSTYRVVSVLTVLHQDWLNGKEYKCKVSNKGLPSSIEKTISKAKGQPREPQVYTLPPCQEEMTKNQVSLWCLVKGFYPSDIAVEWESNGQPENNYKTTPPVLDSDGSFFLYSRLTVDKSRWQEGNVFSCSVMHEALHNHYTQKSLSLSLGKGGGGSDVQLQESGGGLVQAGGSLRLSCAVSGLSFSSMGWFRQPPGKEREFVAAISLYSGSTYYADSVKGRFTISSDNAKSTVYLQMNSLKPEDAAVYFCAADRQRTWSTFYASRQATYNYWGQGTQVTVTS
chain 2: GPPCPPCPAPEFLGGPSVFLFPPKPKDTLMISRTPEVTCVVVDVSQEDPEVQFNWYVDGVEVHNAKTKPREEQFNSTYRVVSVLTVLHQDWLNGKEYKCKVSNKGLPSSIEKTISKAKGQPREPQVCTLPPSQEEMTKNQVSLSCAVKGFYPSDIAVEWESNGQPENNYKTTPPVLDSDGSFFLVSRLTVDKSRWQEGNVFSCSVMHEALHNHYTQKSLSLSLGKGGGGSEVQLLESGGGLVQPGGSLRLSCAASGFTFGNYDMAWVRQAPGKRPEWVSSIDTGGDITHYADSVKGRFTISRDNAKNTLYLQMNSLRPEDTAVYWCATDEEYALGPNEFDYYGQGTLVTVSS
B2: NIgG4F5A1(RS) (Fc fusion)
chain 1: DVQLQESGGGLVQPGGSLRLSCAASGSIFSIDIMGWYRQAPGKQRELVATMPEGNYINYADSVKGRLTLSRDKGKNTVYLQLNSLKPEDTAVYYCYGFGVREGRGNVYWGQGTQVTVSRSGPPCPPCPAPEFLGGPSVFLFPPKPKDTLMISRTPEVTCVVVDVSQEDPEVQFNWYVDGVEVHNAKTKPREEQFNSTYRVVSVLTVLHQDWLNGKEYKCKVSNKGLPSSIEKTISKAKGQPREPQVYTLPPCQEEMTKNQVSLWCLVKGFYPSDIAVEWESNGQPENNYKTTPPVLDSDGSFFLYSRLTVDKSRWQEGNVFSCSVMHEALHNHYTQKSLSLSLGK
chain 2: EVQLLESGGGLVQPGGSLRLSCAASGFTFGNYDMAWVRQAPGKRPEWVSSIDTGGDITHYADSVKGRFTISRDNAKNTLYLQMNSLRPEDTAVYWCATDEEYALGPNEFDYYGQGTLVTVSSRSGPPCPPCPAPEFLGGPSVFLFPPKPKDTLMISRTPEVTCVVVDVSQEDPEVQFNWYVDGVEVHNAKTKPREEQFNSTYRVVSVLTVLHQDWLNGKEYKCKVSNKGLPSSIEKTISKAKGQPREPQVCTLPPSQEEMTKNQVSLSCAVKGFYPSDIAVEWESNGQPENNYKTTPPVLDSDGSFFLVSRLTVDKSRWQEGNVFSCSVMHEALHNHYTQKSLSLSLGK
B3: NIgG4F5A1(G4S)1 (Fc fusion)
chain 1: DVQLQESGGGLVQPGGSLRLSCAASGSIFSIDIMGWYRQAPGKQRELVATMPEGNYINYADSVKGRLTLSRDKGKNTVYLQLNSLKPEDTAVYYCYGFGVREGRGNVYWGQGTQVTVSGGGGSGPPCPPCPAPEFLGGPSVFLFPPKPKDTLMISRTPEVTCVVVDVSQEDPEVQFNWYVDGVEVHNAKTKPREEQFNSTYRVVSVLTVLHQDWLNGKEYKCKVSNKGLPSSIEKTISKAKGQPREPQVYTLPPCQEEMTKNQVSLWCLVKGFYPSDIAVEWESNGQPENNYKTTPPVLDSDGSFFLYSRLTVDKSRWQEGNVFSCSVMHEALHNHYTQKSLSLSLGK
chain 2: EVQLLESGGGLVQPGGSLRLSCAASGFTFGNYDMAWVRQAPGKRPEWVSSIDTGGDITHYADSVKGRFTISRDNAKNTLYLQMNSLRPEDTAVYWCATDEEYALGPNEFDYYGQGTLVTVSSGGGGSGPPCPPCPAPEFLGGPSVFLFPPKPKDTLMISRTPEVTCVVVDVSQEDPEVQFNWYVDGVEVHNAKTKPREEQFNSTYRVVSVLTVLHQDWLNGKEYKCKVSNKGLPSSIEKTISKAKGQPREPQVCTLPPSQEEMTKNQVSLSCAVKGFYPSDIAVEWESNGQPENNYKTTPPVLDSDGSFFLVSRLTVDKSRWQEGNVFSCSVMHEALHNHYTQKSLSLSLGK
B4: CIgG4F4A1(G4S)2 (Fc fusion)
chain 1: GPPCPPCPAPEFLGGPSVFLFPPKPKDTLMISRTPEVTCVVVDVSQEDPEVQFNWYVDGVEVHNAKTKPREEQFNSTYRVVSVLTVLHQDWLNGKEYKCKVSNKGLPSSIEKTISKAKGQPREPQVYTLPPCQEEMTKNQVSLWCLVKGFYPSDIAVEWESNGQPENNYKTTPPVLDSDGSFFLYSRLTVDKSRWQEGNVFSCSVMHEALHNHYTQKSLSLSLGKGGGGSGGGGSDVQLQESGGGLVQAGGSLRLSCAVSGLSFSSMGWFRQPPGKEREFVAAISLYSGSTYYADSVKGRFTISSDNAKSTVYLQMNSLKPEDAAVYFCAADRQRTWSTFYASRQATYNYWGQGTQVTVTS
chain 2: GPPCPPCPAPEFLGGPSVFLFPPKPKDTLMISRTPEVTCVVVDVSQEDPEVQFNWYVDGVEVHNAKTKPREEQFNSTYRVVSVLTVLHQDWLNGKEYKCKVSNKGLPSSIEKTISKAKGQPREPQVCTLPPSQEEMTKNQVSLSCAVKGFYPSDIAVEWESNGQPENNYKTTPPVLDSDGSFFLVSRLTVDKSRWQEGNVFSCSVMHEALHNHYTQKSLSLSLGKGGGGSGGGGSEVQLLESGGGLVQPGGSLRLSCAASGFTFGNYDMAWVRQAPGKRPEWVSSIDTGGDITHYADSVKGRFTISRDNAKNTLYLQMNSLRPEDTAVYWCATDEEYALGPNEFDYYGQGTLVTVSS
B5: NIgG4F5A1(G4S)3 (Fc fusion)
chain 1: DVQLQESGGGLVQPGGSLRLSCAASGSIFSIDIMGWYRQAPGKQRELVATMPEGNYINYADSVKGRLTLSRDKGKNTVYLQLNSLKPEDTAVYYCYGFGVREGRGNVYWGQGTQVTVSGGGGSGGGGSGGGGSGPPCPPCPAPEFLGGPSVFLFPPKPKDTLMISRTPEVTCVVVDVSQEDPEVQFNWYVDGVEVHNAKTKPREEQFNSTYRVVSVLTVLHQDWLNGKEYKCKVSNKGLPSSIEKTISKAKGQPREPQVYTLPPCQEEMTKNQVSLWCLVKGFYPSDIAVEWESNGQPENNYKTTPPVLDSDGSFFLYSRLTVDKSRWQEGNVFSCSVMHEALHNHYTQKSLSLSLGK
chain 2: EVQLLESGGGLVQPGGSLRLSCAASGFTFGNYDMAWVRQAPGKRPEWVSSIDTGGDITHYADSVKGRFTISRDNAKNTLYLQMNSLRPEDTAVYWCATDEEYALGPNEFDYYGQGTLVTVSSGGGGSGGGGSGGGGSGPPCPPCPAPEFLGGPSVFLFPPKPKDTLMISRTPEVTCVVVDVSQEDPEVQFNWYVDGVEVHNAKTKPREEQFNSTYRVVSVLTVLHQDWLNGKEYKCKVSNKGLPSSIEKTISKAKGQPREPQVCTLPPSQEEMTKNQVSLSCAVKGFYPSDIAVEWESNGQPENNYKTTPPVLDSDGSFFLVSRLTVDKSRWQEGNVFSCSVMHEALHNHYTQKSLSLSLGK
B6: CIgG4F5A1(RS) (Fc fusion)
chain 1: GPPCPPCPAPEFLGGPSVFLFPPKPKDTLMISRTPEVTCVVVDVSQEDPEVQFNWYVDGVEVHNAKTKPREEQFNSTYRVVSVLTVLHQDWLNGKEYKCKVSNKGLPSSIEKTISKAKGQPREPQVYTLPPCQEEMTKNQVSLWCLVKGFYPSDIAVEWESNGQPENNYKTTPPVLDSDGSFFLYSRLTVDKSRWQEGNVFSCSVMHEALHNHYTQKSLSLSLGKRSDVQLQESGGGLVQPGGSLRLSCAASGSIFSIDIMGWYRQAPGKQRELVATMPEGNYINYADSVKGRLTLSRDKGKNTVYLQLNSLKPEDTAVYYCYGFGVREGRGNVYWGQGTQVTVS
chain 2: GPPCPPCPAPEFLGGPSVFLFPPKPKDTLMISRTPEVTCVVVDVSQEDPEVQFNWYVDGVEVHNAKTKPREEQFNSTYRVVSVLTVLHQDWLNGKEYKCKVSNKGLPSSIEKTISKAKGQPREPQVCTLPPSQEEMTKNQVSLSCAVKGFYPSDIAVEWESNGQPENNYKTTPPVLDSDGSFFLVSRLTVDKSRWQEGNVFSCSVMHEALHNHYTQKSLSLSLGKRSEVQLLESGGGLVQPGGSLRLSCAASGFTFGNYDMAWVRQAPGKRPEWVSSIDTGGDITHYADSVKGRFTISRDNAKNTLYLQMNSLRPEDTAVYWCATDEEYALGPNEFDYYGQGTLVTVSS
B7: NIgG4F5A1(G4S)2 (Fc fusion)
chain 1: DVQLQESGGGLVQPGGSLRLSCAASGSIFSIDIMGWYRQAPGKQRELVATMPEGNYINYADSVKGRLTLSRDKGKNTVYLQLNSLKPEDTAVYYCYGFGVREGRGNVYWGQGTQVTVSGGGGSGGGGSGPPCPPCPAPEFLGGPSVFLFPPKPKDTLMISRTPEVTCVVVDVSQEDPEVQFNWYVDGVEVHNAKTKPREEQFNSTYRVVSVLTVLHQDWLNGKEYKCKVSNKGLPSSIEKTISKAKGQPREPQVYTLPPCQEEMTKNQVSLWCLVKGFYPSDIAVEWESNGQPENNYKTTPPVLDSDGSFFLYSRLTVDKSRWQEGNVFSCSVMHEALHNHYTQKSLSLSLGK
chain 2: EVQLLESGGGLVQPGGSLRLSCAASGFTFGNYDMAWVRQAPGKRPEWVSSIDTGGDITHYADSVKGRFTISRDNAKNTLYLQMNSLRPEDTAVYWCATDEEYALGPNEFDYYGQGTLVTVSSGGGGSGGGGSGPPCPPCPAPEFLGGPSVFLFPPKPKDTLMISRTPEVTCVVVDVSQEDPEVQFNWYVDGVEVHNAKTKPREEQFNSTYRVVSVLTVLHQDWLNGKEYKCKVSNKGLPSSIEKTISKAKGQPREPQVCTLPPSQEEMTKNQVSLSCAVKGFYPSDIAVEWESNGQPENNYKTTPPVLDSDGSFFLVSRLTVDKSRWQEGNVFSCSVMHEALHNHYTQKSLSLSLGK
B8: CIgG4F4A1(G4S)3 (Fc fusion)
chain 1: GPPCPPCPAPEFLGGPSVFLFPPKPKDTLMISRTPEVTCVVVDVSQEDPEVQFNWYVDGVEVHNAKTKPREEQFNSTYRVVSVLTVLHQDWLNGKEYKCKVSNKGLPSSIEKTISKAKGQPREPQVYTLPPCQEEMTKNQVSLWCLVKGFYPSDIAVEWESNGQPENNYKTTPPVLDSDGSFFLYSRLTVDKSRWQEGNVFSCSVMHEALHNHYTQKSLSLSLGKGGGGSGGGGSGGGGSDVQLQESGGGLVQAGGSLRLSCAVSGLSFSSMGWFRQPPGKEREFVAAISLYSGSTYYADSVKGRFTISSDNAKSTVYLQMNSLKPEDAAVYFCAADRQRTWSTFYASRQATYNYWGQGTQVTVTS
chain 2: GPPCPPCPAPEFLGGPSVFLFPPKPKDTLMISRTPEVTCVVVDVSQEDPEVQFNWYVDGVEVHNAKTKPREEQFNSTYRVVSVLTVLHQDWLNGKEYKCKVSNKGLPSSIEKTISKAKGQPREPQVCTLPPSQEEMTKNQVSLSCAVKGFYPSDIAVEWESNGQPENNYKTTPPVLDSDGSFFLVSRLTVDKSRWQEGNVFSCSVMHEALHNHYTQKSLSLSLGKGGGGSGGGGSGGGGSEVQLLESGGGLVQPGGSLRLSCAASGFTFGNYDMAWVRQAPGKRPEWVSSIDTGGDITHYADSVKGRFTISRDNAKNTLYLQMNSLRPEDTAVYWCATDEEYALGPNEFDYYGQGTLVTVSS

mixture of three Der p 2 specific recombinant human IgE clones H10, H12, P4E (human), sequence (P01854 other isoform, or with tags, fused parts or gaps): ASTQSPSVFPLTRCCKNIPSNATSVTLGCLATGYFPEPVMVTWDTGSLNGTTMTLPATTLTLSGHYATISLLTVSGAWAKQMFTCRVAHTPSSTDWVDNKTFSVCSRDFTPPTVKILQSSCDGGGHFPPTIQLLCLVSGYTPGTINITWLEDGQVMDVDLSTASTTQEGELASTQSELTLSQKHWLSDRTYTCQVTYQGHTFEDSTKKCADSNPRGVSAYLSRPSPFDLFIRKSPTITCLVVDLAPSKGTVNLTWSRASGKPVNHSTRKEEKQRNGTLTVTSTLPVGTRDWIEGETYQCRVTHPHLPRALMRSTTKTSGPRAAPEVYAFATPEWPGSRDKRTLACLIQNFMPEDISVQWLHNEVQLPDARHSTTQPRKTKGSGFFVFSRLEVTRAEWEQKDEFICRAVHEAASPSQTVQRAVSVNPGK

This assay has as its target mixture of three Der p 2 specific recombinant human IgE clones H10, H12, P4E (human) (UniProt P01854). In words: RBL-SX38 IgE displacement, FACS.
Regarding B1, the EC50 worked out at 0.9 nM and the Max effect/effect 1 µM is 100%.

For B2, the EC50 amounted to 0.7 nM and the Max effect/effect 1 µM amounted to 99%.

For B3, the EC50 was found to be 28.9 nM and the Max effect/effect 1 µM worked out at 67%.

With B4, the EC50 is 0.9 nM and the Max effect/effect 1 µM stood at 100%.

On to B5, for which the EC50 came out at 34.8 nM and the Max effect/effect 1 µM stood at 48%.

On to B6, for which the Max effect/effect 1 µM is 0%.

On to B7, for which the EC50 came to 21.2 nM and the Max effect/effect 1 µM was determined as 75%.

In the case of B8, the EC50 turned out to be 1.2 nM and the Max effect/effect 1 µM worked out at 97%.
